Measured values reported in the nanobody polyreactivity screen of Harvey et al. (2022).

Assay: yeast display, Sf9 membrane polyspecificity reagent, FACS + sequencing; frameworks hold sequencing errors
Summary of the method: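 In a synthetic yeast display library (Saccharomyces cerevisiae BJ5465), nanobody expression was induced with galactose for 36–48 hours. FACS gates were set low and high (top ~1%) using anti-HA fluorescence for expression and streptavidin fluorescence for binding of the Sf9 membrane reagent. Each polyreactivity label is drawn from the gate of origin.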

| Sequence | polyreactivity (PSR sort gate) |
| --- | --- |
| QVQLVESGGGLVQAGGSLRLSCAASGLIFYYNAMGWYRQAPGKERELVATIRGSGSSTYYADSVKGRFTISRDNAKNTVYLQMNSLKPEDTAVYYCAAKGYRCFRHGGYYFKFDYWGQGTQVTVSS | high polyreactivity |
| QVQLVESGGGLVQAGGSLRLSCAASGLIIPFYAMGWYRQAPGKERELVAAISWSAGSTYYADSVKGRFTISRDNAKNTVYLQMNCLKPEDTAVYYCAATAYYYYDYDYWGQGTQVTVSS | low polyreactivity |
| QVQLVESGGGLVQAGGSLRLSCAASGLIIRYYAMGWYRQARGKERELVAAISYNGGSTYYADSVKGRFTISRDNAKNTVYLQMNSLKPEDTAVYYCAARLYGRYGYWGQGTQVTVSS | high polyreactivity |
| QVQLVESGGGLVQAGGSLRLSCAASGLIISWYAMGWNRQEPGTERELVAAISSGGSTTYADSVKGRFTISRDNAKNTVYLQMNSLKPEDTAVYYCNADQVFGYNYWGQGTQLTVSS | high polyreactivity |
| QVQLVESGGGLVQAGGSLRLSCAASGLIIWLYTMGWYRQAPGKERELVAAIDWSGGSTYYADSVKGRFTISRDNAKNTVYLQMNSLKPEYTAVYYCAADPEPSYRFDYWGQGTQVTVSS | low polyreactivity |
| QVQLVESGGGLVQAGGSLRLSCAASGLILKNYAMGWYRQAPWKERELVAAITRSGGSTYYADSVKGRFTISRDNAKNTVYLQMNSLKPEDTAVYYCAARNPSGKGRYDYRGQGTQVTVSS | high polyreactivity |
| QVQLVESGGGLVQAGGSLRLSCAASGLILNYYTMGWYRQAPGKERELVATISSSTGSTYYADSVKGRFTISRDNAKNTVYLQMNSLKPEDTAVYYCAADHWSYWQIYDFWGQGTQVTVSS | low polyreactivity |
| QVQLVESGGGLVQAGGSLRLSCAASGLILRKYAMGWYRQAPGKEREFVAAITQTGSRTYYADSVKVRFTISRDNAKYTVYFQMNSLIPEDTAVYYCNAVNYRSSRDSGYWGQGTQVTVSS | high polyreactivity |
| QVQLVESGGGLVQAGGSLRLSCAASGLILRRYAMGWYRQAPGKERELVAAITSGGRTYYADSVKGRFTISRDNAKNTVYLQMNSLKPEDTAVYYCNAVKLVRHTTPYDYWGQGTQVTVSS | high polyreactivity |
| QVQLVESGGGLVQAGGSLRLSCAASGLILSDYVMGWYRQAPGKEREFVAAITSTGGSTYYADSVKGRFTISRDNAKNTVYLQMNSLKPEDTAVYYCAVRIHFPFPRRYYYWGQGTQVTVSS | high polyreactivity |
| QVQLVESGGGLVQAGGSLRLSCAASGLILYNYAMGWYRQAPGKERELVAAISRSGGSTYYADSVKGRFTISRDNAKNTVYLQMNSLKPEDTAVYYCKVGYGRGSTIGGYDYWGQGTQVTVSS | high polyreactivity |
| QVQLVESGGGLVQAGGSLRLSCAASGLISDRNAMGWYRQAPGKERELVASIRSGGSTYYADSVKGRFTISRDNAKNTVYLQMNSQKPEDTAVYYCAAGGGHTPVSYYLVPYMDYWGQGTQVTVSS | low polyreactivity |
| QVQLVESGGGLVQAGGSLRLSCAASGLISRRNAMGWYRQAPGKERELVAAISTGSSTNYADSVKGRFTISRDNAKNTVYLQMNSLKPEDTAVYYCAATQYWWSTLGIRDDYWGQGSQVTVSS | low polyreactivity |
| QVQLVESGGGLVQAGGSLRLSCAASGLISSINAMGWYRQAPGKERELVATITSGGSTYYADSVKGRFTISRDNAKNTVYLQMNSLKPEDTAVYYCAARSSVRAYYSWGHGTQVTVSS | high polyreactivity |
| QVQLVESGGGLVQAGGSLRLSCAASGLNFARNAMGWYRQAPGKERELVAAISSSGNTYADSVKGRFTISRDNAKNTVYLQMNSLKPEDTAVYYCAADYVRWGQRKRSRYYYWGQGTQVTVSS | high polyreactivity |
| QVQLVESGGGLVQAGGSLRLSCAASGLPFRDYAMGWYRQAPGTERELVAAISDGDDSTSYADSVKGRFTSSRDNAKTTGYLQMNSQNPEDTAVYDCAPYLSDPDFLAGIYGLYNYWGQGTQVTVSS | low polyreactivity |
| QVQLVESGGGLVQAGGSLRLSCAASGLSFGDYTMGWYRQAPGKERELVAAITGSGASTYYADSVKGRFTISRDNAKNTVYLQMTRLKPEDTAGYYCAAERTPSYRAYDYWGQATQVTVSS | low polyreactivity |
| QVQLVESGGGLVQAGGSLRLSCAASGLSFPLNAMGWYRPAPGKERQLVAAITYSGGGTYYADSVKGRFTISRDTAKNTGYLQMNSLKTEDTAVYYCAADGSVSYYTYYYWGQGTQVTVSS | low polyreactivity |
| QVQLVESGGGLVQAGGSLRLSCAASGLTCASYVMGWYRQAPGKERELVAAISSSGDSTYYADSVKGRFTISRDNAKNTFYLEMNSLKPEDTAVYYCASNDYVWGQGTQVTVSS | low polyreactivity |
| QVQLVESGGGLVQAGGSLRLSCAASGLTCYYYARGLYRQAPGKERELVADISSGGSTKYADSVKGRFTISRDNAKNTVYLQMNSLKPEDTAVYYCATGYFCGFRYRPYYYWGQGTQVTVSS | high polyreactivity |
| QVQLVESGGGLVQAGGSLRLSCAASGLTFADNTMGWYRQAPGKERELVAAIDWSGGGTDYADSVKGRFTISRDNAKNTVYLQMNSLKPEDTAVYYCNAERTSWEDDYWGQGTQVTVSS | low polyreactivity |

| Sequence | polyreactivity (PSR sort gate) |
| --- | --- |
| QVQLVESGGGLVQAGGSLRLSCAASGLTFAGNAMGWYRQAPGKEREFVATITWSDGSTRYADSVKGRFTISRDNAKNTVYLQMNSLKPEDTAVYYCNTQYPDYFYEFNYWGQGTQVTVSS | low polyreactivity |
| QVQLVESGGGLVQAGGSLRLSCAASGLTFAGYAMGWYRQAPGKERELVAAISSGGRTNYADSVKGRFTISRDNAKNTVYLHMNSLKPADTAVYYCAARISTHAPHRRLTYEYWGQGTQVTVSS | low polyreactivity |
| QVQLVESGGGLVQAGGSLRLSCAASGLTFAYNAMGWYRQAPGKARQLVASINWSDSSTYYADSVKGRFTISRDNAKNTVYLQMHSLKPEDTEVYYCAADAYYVGQGYDYGGQGTQVTVSS | low polyreactivity |
| QVQLVESGGGLVQAGGSLRLSCAASGLTFAYYAMGWYIQAPGKERELVAAITWNGGSTYYADSVKGRFTISRDNSKNTVYLQMNSLKPEDTAVYYCAASWGYCYSGRFDYWGQGTEVTVSS | high polyreactivity |
| QVQLVESGGGLVQAGGSLRLSCAASGLTFAYYDMGWYRQAPGKERELVAAITSGGTTNYADSVKGRFTISRDNAKNTVYLQMNSLKPEDTAVYYCNADYYSRIVGVRIYDYWGQGTQVTVSS | low polyreactivity |
| QVQLVESGGGLVQAGGSLRLSCAASGLTFDEYAMGWYRQPPGKERELVARITQSGGSTYYADSVKGRFTISRDNAKNTVYLQMNSLKPEDTAVYYCNAGAPARYWWEGDYWGQGTQVTVSS | high polyreactivity |
| QVQLVESGGGLVQAGGSLRLSCAASGLTFDSNVMGWYRQAPGKERELVAAITSSGRTYYADSVKGRFTISRDNEKNTVYLQMNSLKPEDTAVYYCAARNLAYTRKGYYYWGQGTQVTVSS | high polyreactivity |
| QVQLVESGGGLVQAGGSLRLSCAASGLTFDSNVMRWYRQAHGKEMELVAAITSSGRTYYADSVKGRFTISRDNAKNTFYLQMNSLKPEDTAVYYCAARNLAYTRKGYYYWGQGTQVTVSS | high polyreactivity |
| QVQLVESGGGLVQAGGSLRLSCAASGLTFDTYAMGWYRQAPGKERELVAAISICGRTNYADSVKGRFTISRDNAKNTVYLQMNSLKPQDTAVYYCAVGAVVPGRRRRTYYYWGQGTQVTVSS | high polyreactivity |
| QVQLVESGGGLVQAGGSLRLSCAASGLTFDVYTMGWYRQAPGKERELVAGITSGGSTDYADSVKGRFTISRDNAKNTVYLQMNSLKPEDTAVYYCNKPFPYYPDGPNGYDYWGQGTQVTVSS | low polyreactivity |
| QVQLVESGGGLVQAGGSLRLSCAASGLTFDWNTMGWYRQAPGKERELVATITYTGGSTYYADSVKGRFTISRDNAKNTVYLQMNSLKPEDTAVYFCAARRTRYRSYSRVRYTYDYWGQGTQVTVSS | high polyreactivity |
| QVQLVESGGGLVQAGGSLRLSCAASGLTFDWYTMGWYRQAPGKERELVATINSGGSTDYADSVKGRFTISRDNAKNTVYLQMNSLKPEDTAVYYCNAEYGYSGVGDDYWGQGTQVTVSS | low polyreactivity |
| QVQLVESGGGLVQAGGSLRLSCAASGLTFDYYAMGWSRQAPGKERELVAAITSSGGRTYYADSVKGRFTISRDNAKNTVYLQMNSLKPEDTAVYYCAKRDSYYNGVGYWGQGTQVTVSS | low polyreactivity |
| QVQLVESGGGLVQAGGSLRLSCAASGLTFDYYAMGWYRQAPGKERELVAAIDWSGGSTYYADSVKGRFTISRDNAKNTVYLQMNSLKPEDTAVYYCATESDDSGMDYWGQGTQVTVSS | low polyreactivity |
| QVQLVESGGGLVQAGGSLRLSCAASGLTFDYYDRGGYRQAPGKERELVASITWRGSSTYYADSVKGRFTISRDNAKNTVYLQMNSLKPEDTAVYYCAARPQHFDLDLAYSGFDYWGQGTQVTVSS | high polyreactivity |
| QVQLVESGGGLVQAGGSLRLSCAASGLTFDYYVMGWYRQAPGKERELVATISWSGDITYYADSVKGRFTISRDNAKNTVYLQMNSLKPEDTAVYYCAADYLDSTYGYVYGWDDYWGQGTQVTVSS | low polyreactivity |
| QVQLVESGGGLVQAGGSLRLSCAASGLTFEKYSMGWYRQAPGKERELVAAISQDGGSTYYADSVKGRFTISRDNAKNTVYLQMNSVKPEDTAVYYCAAEDPDSWLPWDLFDYWGQGTQVTVSS | low polyreactivity |
| QVQLVESGGGLVQAGGSLRLSCAASGLTFERYAMGWNREAPGKERELVAAISGSGGSTYYADSVKGRFTISRDNAKNTVYLQMNSLTPEDTAVYYCAAYPTVWYDYWGQGTQVTVSS | high polyreactivity |
| QVQLVESGGGLVQAGGSLRLSCAASGLTFFPNAMGWYRQAPGKERELVAAISNNGGRTYYADSVKGRFTISRDNAKNTVYLQMNSLKPEDTAVYYCAKYLSPGERHSYDYWGQGTQVTVSS | high polyreactivity |
| QVQLVESGGGLVQAGGSLRLSCAASGLTFGAYAMGWYRQAPGKEREFVAAITYSGGSTNYADSVKGRFTISRDNAKNTVYLQMNSLKPEDTAVYSCNAGYYSPWAFYPYDYWGQGTQVTVSS | high polyreactivity |
